From patent US12042530B2, “Target peptides for immunotherapy and diagnostics” (University of Virginia Patent Foundation, priority 2012, dated 2024)
Non-standard residues stand in square brackets, D forms with d. No end group written: not given here. pT = C[C@@H](OP(=O)(O)O)[C@H](N)C(=O)O; pS = N[C@@H](COP(=O)(O)O)C(=O)O

Columns and labels:
HLA-B*0702 = molecular target: T1, HLA-B*0702 (Homo sapiens, UniProt P01889); test: Phosphopeptides presented in association with class I molecules (HLA-B*0702) on cancer cells: melanoma and/or leukemia; parameters: key: Melanoma (M); Leukemia (L); L/M: Melanoma (M) and/or Leukemia (L); settings: cancer type on which the HLA-B*0702 phosphopeptide is presented
T1 construct: endogenous in cells; host or cells: melanoma and/or leukemia cells

[1] = molecular target: T2, HLA-B*0702 (HLA-B7) peptide complexes (Homo sapiens, UniProt P01889); test: HLA-B*0702 phosphopeptides associated with leukemia samples (isolation of HLA-associated peptides); settings: for Copies/cell class, HCL1: hairy cell leukemia sample HCL1; for Copies/cell class, B Cell: healthy B cells; for Copies/cell class, T Cell: healthy T cells; for Copies/cell class, ALL1: acute lymphoblastic leukemia sample ALL1
T2 construct: endogenous in cells; host or cells: JY B-lymphoblastoid line; primary ALL, CLL, HCL, AML samples; bone marrow; healthy B and T cells
Text: To identify naturally processed tumor-associated phosphopeptides, HLA-A*0201 (HLA-A2) and HLA-B*0702 (HLA-B7) peptide complexes from four (4) chronic lymphocytic leukemia (CLL) tumor samples, a mantle cell lymphoma sample (MCL), one acute lymphoblastic leukemia (ALL), and an acute myeloid leukemia (AML) sample, in addition to healthy splenic T and B-cells and the cultured lymphoblastoid cell line JY were isolated. These efforts yielded 10 HLA-A2-restricted and 86 HLA-B7-restricted phosphopeptide antigens (see Tables 6 and 7).
All cell lines were grown at 37° C. with 5% CO2 in growth medium consisting of RPMI 1640 supplemented with 10% FCS and two mM L-glutamine. Blood or leukapheresis samples were taken from patients with high-burden leukemia in heparin. Tumor cells were recovered by layering the blood over density gradient (Ficoll) and collecting the tumor layer following centrifugation. The tumor was washed in tris-buffered saline (TBS). The purity of the tumor was assessed using flow cytometry and was >98% pure in all cases. For healthy T and B-cell populations, a normal spleen sample processed and tonsil sample was collected and lymphocytes released through mechanical disruption. Mononuclear cells were isolated using a density gradient and 10^9 T cells isolated using anti-CD19 or anti-CD3 microbeads (Miltenyi Biotec Inc., Auburn, California, United States of America) with purity >98% were obtained. Bone marrow sample was obtained from an elective orthopedic procedure and red cell-depleted using hypotonic lysis. This sample was not processed further.
Class I MHC molecules were immunoaffinity purified from the JY cell line or from primary tumor samples, and their associated peptides were extracted as previously described in Zarling et al., 2006. Approximately 1.2-14×10^9 cells were lysed in a solution containing 20 mM Tris-HCl (pH 8.0), 150 mM NaCl, 1% CHAPS, one mM PMSF, five μg/mL aprotinin, 10 μg/mL leupeptin, 10 μg/mL pepstatin A, 1 μg/ml calyculin A, and phosphatase inhibitor (cocktails I and II; Sigma-Aldrich). The mixture was subjected to centrifugation and the resulting supernatant was passed over protein A sepharose pre-loaded with the HLA-A2-specific antibody BB7.2 or HLA-B7-specific antibody MEL Peptides were eluted from the purified class I MHC molecules with 10% acetic acid.

Row | Substance | L/M (HLA-B*0702) | Copies/cell class, CLL4 [1] | Copies/cell class, HCL1 [1] | Copies/cell class, B Cell [1] | Copies/cell class, T Cell [1] | Copies/cell class, AML1 [1] | Copies/cell class, CLL2 [1] | Copies/cell class, JY [1] | Copies/cell class, ALL1 [1] | Copies/cell class, BM ([1]; healthy bone marrow)
1 | 313 (RPF[pS]PREAL; listed as Homo sapiens) [compound 313] | L | 4 (4 indicates >25 copies per cell) | 4 (4 indicates >25 copies per cell) | 4 (4 indicates >25 copies per cell) | 4 (4 indicates >25 copies per cell) | – | – | – | – | –
2 | 314 (RPH[pS]PEKAF; listed as Homo sapiens) [compound 314] | L | – | 1 (1 indicates <1 copy/cell) | – | – | 1 (1 indicates <1 copy/cell) | 1 (1 indicates <1 copy/cell) | 3 (3 indicates 6-25 copies per cell) | 1 (1 indicates <1 copy/cell) | –
3 | 315 (RPI[pT]PPRNSA; listed as Homo sapiens) [compound 315] | L | – | – | – | – | – | – | – | 1 (1 indicates <1 copy/cell) | –
4 | 317 (RPKLS[pS]PAL; listed as Homo sapiens) [compound 317] | L | – | – | – | – | 1 (1 indicates <1 copy/cell) | – | – | – | –
5 | 318 (RPKPSS[pS]PV; listed as Homo sapiens) [compound 318] | L | – | – | – | – | – | 1 (1 indicates <1 copy/cell) | – | 2 (2 indicates 1-5 copies/cell) | 1 (1 indicates <1 copy/cell)
6 | 319 (RPN[pS]PSPTAL; listed as Homo sapiens) [compound 319] | L | 2 (2 indicates 1-5 copies/cell) | 1 (1 indicates <1 copy/cell) | 1 (1 indicates <1 copy/cell) | 1 (1 indicates <1 copy/cell) | – | 3 (3 indicates 6-25 copies per cell) | 4 (4 indicates >25 copies per cell) | 1 (1 indicates <1 copy/cell) | –
7 | 320 (RPPPPPD[pT]PP; listed as Homo sapiens) [compound 320] | L | – | – | – | – | – | – | – | 1 (1 indicates <1 copy/cell) | –
8 | 321 (RPP[pS]PGPVL; listed as Homo sapiens) [compound 321] | L | 1 (1 indicates <1 copy/cell) | 1 (1 indicates <1 copy/cell) | – | 2 (2 indicates 1-5 copies/cell) | – | 1 (1 indicates <1 copy/cell) | 4 (4 indicates >25 copies per cell) | 2 (2 indicates 1-5 copies/cell) | –
9 | 322 (RPP[pS]SEFLDL; listed as Homo sapiens) [compound 322] | L | – | 1 (1 indicates <1 copy/cell) | 2 (2 indicates 1-5 copies/cell) | 2 (2 indicates 1-5 copies/cell) | – | 1 (1 indicates <1 copy/cell) | – | 3 (3 indicates 6-25 copies per cell) | –
10 | 323 (RPQRA[pT]SNVF; listed as Homo sapiens) [compound 323] | L | 4 (4 indicates >25 copies per cell) | 4 (4 indicates >25 copies per cell) | 2 (2 indicates 1-5 copies/cell) | 4 (4 indicates >25 copies per cell) | 2 (2 indicates 1-5 copies/cell) | 4 (4 indicates >25 copies per cell) | 4 (4 indicates >25 copies per cell) | 4 (4 indicates >25 copies per cell) | –
11 | 324 (RPQRAT[pS]NVF; listed as Homo sapiens) [compound 324] | L | – | – | 2 (2 indicates 1-5 copies/cell) | 3 (3 indicates 6-25 copies per cell) | 2 (2 indicates 1-5 copies/cell) | – | – | – | –
12 | 325 (RPRAN[pS]GGVDL; listed as Homo sapiens) [compound 325] | L | – | – | – | – | 2 (2 indicates 1-5 copies/cell) | – | – | – | –
13 | 327 (RPRPH[pS]APSL; listed as Homo sapiens) [compound 327] | L | – | – | – | – | 2 (2 indicates 1-5 copies/cell) | – | – | – | –
14 | 328 (RPRPV[pS]PSSL; listed as Homo sapiens) [compound 328] | L | – | – | – | – | 1 (1 indicates <1 copy/cell) | – | – | – | –
15 | 330 (RPR[pS]AVLL; listed as Homo sapiens) [compound 330] | L | – | – | – | – | 2 (2 indicates 1-5 copies/cell) | – | – | – | –
16 | 331 (RPR[pS]LEVTI; listed as Homo sapiens) [compound 331] | L | – | – | – | – | 1 (1 indicates <1 copy/cell) | – | – | – | –
17 | 333 (RPR[pS]PAARL; listed as Homo sapiens) [compound 333] | L | – | – | – | – | 1 (1 indicates <1 copy/cell) | – | – | – | –
18 | 334 (RPR[pS]PGSNSKV; listed as Homo sapiens) [compound 334] | L | – | – | – | – | 1 (1 indicates <1 copy/cell) | – | – | – | –
19 | 336 (RPR[pS]PRQNSI; listed as Homo sapiens) [compound 336] | L | – | – | – | – | 2 (2 indicates 1-5 copies/cell) | – | – | – | –
20 | 337 (RPR[pS]PSPIS; listed as Homo sapiens) [compound 337] | L | – | – | – | – | 2 (2 indicates 1-5 copies/cell) | – | – | – | –
21 | 338 (RPR[pS]PTGP; listed as Homo sapiens) [compound 338] | L | – | – | – | – | 4 (4 indicates >25 copies per cell) | – | – | – | –
22 | 339 (RPR[pS]PTGP[pS]NSF; listed as Homo sapiens) [compound 339] | L | – | – | – | – | 2 (2 indicates 1-5 copies/cell) | – | – | – | –
23 | 342 (RPSRS[pS]PGL; listed as Homo sapiens) [compound 342] | L | – | – | – | – | 2 (2 indicates 1-5 copies/cell) | – | – | – | –
24 | 343 (RPS[pS]LPDL; listed as Homo sapiens) [compound 343] | L | – | 1 (1 indicates <1 copy/cell) | 3 (3 indicates 6-25 copies per cell) | 4 (4 indicates >25 copies per cell) | 2 (2 indicates 1-5 copies/cell) | 2 (2 indicates 1-5 copies/cell) | 3 (3 indicates 6-25 copies per cell) | 4 (4 indicates >25 copies per cell) | –
25 | 344 (RP[pS]SPALYF; listed as Homo sapiens) [compound 344] | L | 1 (1 indicates <1 copy/cell) | 1 (1 indicates <1 copy/cell) | – | – | 1 (1 indicates <1 copy/cell) | 1 (1 indicates <1 copy/cell) | – | 1 (1 indicates <1 copy/cell) | –
